Reference: article PMC5014123 (Nature communications, 2015)
Where “and” joins values, the source holds several entries; their conditions need not be identical. Equal entries are not always repeated. Non-standard residues stand in square brackets, D forms with d.

B1: Inactive recombinant human ADAM8 (Met1-Pro497) (domain or fragment, UniProt P78325-1 17-497, looked up)
chain: IAPSRPWALMEQYEVVLPWRLPGPRVRRALPSHLGLHPERVSYVLGATGHNFTLHLRKNRDLLGSGYTETYTAANGSEVTEQPRGQDHCFYQGHVEGYPDSAASLSTCAGLRGFFQVGSDLHLIEPLDEGGEGGRHAVYQAEHLLQTAGTCGVSDDSLGSLLGPRTAAVFRPRPGDSLPSRETRYVELYVVVDNAEFQMLGSEAAVRHRVLEVVNHVDKLYQKLNFRVVLVGLEIWNSQDRFHVSPDPSVTLENLLTWQARQRTRRHLHDNVQLITGVDFTGTTVGFARVSAMCSHSSGAVNQDHSKNPVGVACTMAHEMGHNLGMDHDENVQGCRCQERFEAGRCIMAGSIGSSFPRMFSDCSQAYLESFLERPQSVCLANAPDLSHLVGGPVCGNLFVERGEQCDCGPPEDCRNRCCNSTTCQLAEGAQCAHGTCCQECKVKPAGELCRPKKDMCDLEEFCDGRHPECPEDAFQENGTP
B2: cyclo-RLsKDK (BK-1361) (peptide)
peptide: cyclo(RL[dS]KDK)
SMILES: CC(C)C[C@@H]1NC(=O)[C@H](CCCNC(=N)N)NC(=O)[C@H](CCCCN)NC(=O)[C@H](CC(=O)O)NC(=O)[C@H](CCCCN)NC(=O)[C@@H](CO)NC1=O

Legend:
native gel or EMSA = target: the molecule itself; assay: native gel or EMSA
MMP-14 = MMP-14 (UniProt P50281 112-541); assay: cell-based or functional assay
MMP-2 = MMP-2 (UniProt P08253 30-660); assay: cell-based or functional assay
MMP-2, sequence (P08253 30-660): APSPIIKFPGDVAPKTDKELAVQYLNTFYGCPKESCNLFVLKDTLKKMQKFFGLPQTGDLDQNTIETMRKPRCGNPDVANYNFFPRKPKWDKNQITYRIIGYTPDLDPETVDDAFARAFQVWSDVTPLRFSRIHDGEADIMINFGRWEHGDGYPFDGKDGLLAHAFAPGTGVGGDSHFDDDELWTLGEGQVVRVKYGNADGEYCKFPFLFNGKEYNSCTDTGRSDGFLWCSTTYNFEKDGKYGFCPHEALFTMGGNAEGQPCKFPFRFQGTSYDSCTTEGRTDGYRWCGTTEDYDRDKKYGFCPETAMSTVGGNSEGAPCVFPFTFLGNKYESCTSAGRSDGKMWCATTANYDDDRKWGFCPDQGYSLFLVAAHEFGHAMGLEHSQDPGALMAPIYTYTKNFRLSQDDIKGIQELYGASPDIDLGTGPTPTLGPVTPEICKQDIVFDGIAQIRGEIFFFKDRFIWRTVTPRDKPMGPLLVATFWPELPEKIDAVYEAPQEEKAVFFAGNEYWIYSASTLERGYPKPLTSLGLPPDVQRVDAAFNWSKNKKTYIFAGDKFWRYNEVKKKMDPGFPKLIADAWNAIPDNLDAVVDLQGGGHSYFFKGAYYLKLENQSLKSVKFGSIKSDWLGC

Binder	stoichiometry N (native gel or EMSA)	IC50 of inhibition of catalytic activity (substrate Mca-KPLGL-Dpa-AR-NH2) (MMP-14)	IC50 of inhibition of catalytic activity (substrate Mca-PLGL-Dpa-AR-NH2) (MMP-2)
B1	2 and 3		
B2		> 10 µM	> 10 µM
